Test results from patent US20240376163A1 (published 2024).
No end group written: not given here. *: point of attachment. Biotin = O=C1N[C@H]2[C@H](CS[C@H]2CCCCC(=O)*)N1

Target: His-tagged CNA
Test: SPR

Biotin-AAAMAGFPPEITVTPPTP [CABIN1-L-1] showed a Kd of 512 nM.
